The supplement of paper PMC10126150
± gives the standard deviation of the averaged measurements.

Tested on: ATP
Test: switch fluorescence ratio, 500 uM ATP over buffer (Cy3 cluster intensity, sum of 5 cycles each) (fold (ratio)); higher = stronger signal-on switching upon ATP binding; sequences stand for … in TCGTCGGCAGCGTCAGATGTGTATAAGAGACAGTTTTTTTTTTTTTTTTTTTTTTTTT…TC
Conditions: aptamer strand: ATP DNA aptamer (quencher-CACCTGGGGGAGTATTGCGGAGGAAGG + anchor), 100 nM annealed; ATP concentration: 500 uM
Method in brief: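 Exposure to 500 uM ATP lasted 15 min at 22 °C before imaging, and a selection-buffer image was taken beforehand, for Cy3-labelled switching-strand clusters on a modified Illumina MiSeq flow-cell annealed to 100 nM quencher-labelled ATP aptamer. Five buffer/ATP cycles were run with NaOH stripping and re-annealing between them. The fluorescence ratio per cluster is summed target-cycle over summed buffer-cycle Cy3 intensity, averaged per switch-domain sequence. Clusters outside 100-1000 RFU were excluded.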

Sequence | switch fluorescence ratio
TGATAATTTA | 1.06 ± 0.016
TGATACCATG | 0.997 ± 0.018
TGATAGCCAG | 0.9605 ± 0.0072
TGATAGGGCG | 0.963 ± 0.08
TGATATAAGC | 1.03 ± 0.015
TGATATCAAG | 0.979 ± 0.013
TGATATGGGA | 1.01 ± 0.03
TGATATTGTG | 0.994 ± 0.024
TGATATTTGT | 1.01 ± 0.027
TGATCAGATC | 1 ± 0.026
TGATCATATT | 1.024 ± 0.0079
TGATCCCGGG | 0.93018 ± 0.00028
TGATCGCTTT | 1.026 ± 0.01
TGATCGGGCG | 1.04 ± 0.02
TGATCTTGGA | 1.06 ± 0.055
TGATCTTGTT | 0.9619 ± 0.0037
TGATGAAAGG | 0.987 ± 0.031
TGATGAAATT | 1.02 ± 0.036
TGATGAGGAG | 0.996 ± 0.014
TGATGAGGAT | 1.007 ± 0.0083
TGATGAGGGT | 1.02 ± 0.02
TGATGATATG | 0.9929 ± 0.0094
TGATGCCGCT | 1.07 ± 0.083
TGATGCGGGT | 0.98723 ± 6.3e-05
TGATGCGTGT | 0.999 ± 0.027

Sequence | switch fluorescence ratio
TGATGCTCGG | 0.996 ± 0.069
TGATGGATGA | 1.01 ± 0.02
TGATGGGACT | 1.01 ± 0.029
TGATGGGAGT | 0.983 ± 0.014
TGATGGGGGT | 1.04 ± 0.042
TGATGGGTTT | 0.971 ± 0.043
TGATGGTCGA | 1.02 ± 0.032
TGATGTAACG | 1.012 ± 0.0082
TGATGTACGT | 1 ± 0.011
TGATGTGGGG | 0.97 ± 0.029
TGATGTTGAC | 1 ± 0.013
TGATGTTTGA | 0.9947 ± 0.0094
TGATTAGAAG | 0.985 ± 0.034
TGATTCAAAG | 1.01 ± 0.035
TGATTCAAAT | 1.02 ± 0.0087
TGATTGAGGG | 0.9572 ± 0.0056
TGATTGGAGG | 0.994 ± 0.038
TGATTGGGTC | 1.02 ± 0.036
TGATTGGTGT | 1.02 ± 0.011
TGATTGTGGG | 1.03 ± 0.033
TGATTTATGA | 0.9924 ± 0.0067
TGATTTGAAG | 0.9464 ± 0.007
TGATTTTGAG | 1.01 ± 0.018
TGATTTTGGG | 0.997 ± 0.035
TGATTTTGTC | 0.9932 ± 0.0028

Sequence | switch fluorescence ratio
TGATTTTTAC | 1.08 ± 0.092
TGATTTTTTG | 0.969 ± 0.03
TGCAAAAGGC | 0.972 ± 0.013
TGCAAAATTT | 0.995 ± 0.018
TGCAAACCTT | 2.39 ± 0.047
TGCAACCTCA | 1.09 ± 0.043
TGCAAGCGGG | 0.985 ± 0.027
TGCAAGGGGG | 1.06 ± 0.077
TGCAAGGGGT | 1.14 ± 0.16
TGCAAGGTCG | 1.03 ± 0.031
TGCAAGTACA | 1.41 ± 0.063
TGCAAGTGGT | 1.54 ± 0.75
TGCAAGTTTG | 1 ± 0.017
TGCAATATTT | 1.31 ± 0.02
TGCAATGCAC | 1.558 ± 0.0038
TGCAATTAAC | 3.51 ± 0.17
TGCAATTGTA | 1.0195 ± 0.00099
TGCACCAGG | 3.29 ± 0.44
TGCAGCTAGC | 1.05 ± 0.021
TGCAGGGGTA | 1.12 ± 0.2
TGCAGGGTTG | 0.99591 ± 0.00085
TGCATACAGT | 1.03 ± 0.046
TGCATATGGG | 0.978 ± 0.0058
TGCATGGCAA | 1.03 ± 0.013
TGCATGTTTG | 0.975 ± 0.056

Sequence | switch fluorescence ratio
TGCATTATAC | 3.59 ± 0.19
TGCATTCAGT | 0.99 ± 0.048
TGCATTCTGA | 1.02 ± 0.025
TGCATTGGTG | 1.018 ± 0.0019
TGCATTGTTT | 0.999 ± 0.015
TGCATTTTGT | 0.989 ± 0.018
TGCCACAGCA | 1.02 ± 0.025
TGCCATCCTA | 0.9913 ± 0.005
TGCCCATGAT | 0.963 ± 0.018
TGCCCCGCCT | 0.996 ± 0.044
TGCCCCTTTT | 0.98 ± 0.013
TGCCCGGGGT | 1.05 ± 0.036
TGCCGAAAGC | 1.018 ± 0.0087
TGCCGAAAGT | 0.962 ± 0.033
TGCCGAGGCC | 0.977 ± 0.0077
TGCCGCCTTG | 0.979 ± 0.024
TGCCGCTTCT | 1.02 ± 0.058
TGCCGGACGA | 1.065 ± 0.0037
TGCCGGCGGG | 0.9629 ± 0.0043
TGCCGGCTGG | 1.02 ± 0.053
TGCCGGGTCT | 0.988 ± 0.04
TGCCGTCGGC | 0.949 ± 0.06
TGCCTGCATT | 1.02 ± 0.011
TGCCTTGCCA | 1 ± 0.012
TGCCTTTCGG | 0.9909 ± 0.0062
